± gives the standard deviation of the averaged measurements.
Assay: total protein half-life in vivo (active degradation + dilution); higher = more stable protein
[1] = E. coli NCM3722 delta-clpP delta-lon delta-hslV, growth: N-lim chemostat, doubling time 6 h
[2] = E. coli NCM3722 delta-clpP, growth: N-lim chemostat, doubling time 6 h
[3] = E. coli NCM3722 delta-smpB, growth: N-lim chemostat, doubling time 6 h
[4] = wild type E. coli NCM3722, growth: C-lim chemostat, doubling time 3 h
[5] = wild type E. coli NCM3722, growth: C-lim chemostat, doubling time 6 h
[6] = wild type E. coli NCM3722, growth: N-lim chemostat, doubling time 6 h
[7] = E. coli NCM3722 delta-hslV, growth: N-lim chemostat, doubling time 6 h
[8] = E. coli NCM3722 delta-lon, growth: N-lim chemostat, doubling time 6 h
[9] = wild type E. coli NCM3722, growth: C-lim chemostat, doubling time 12 h
[10] = wild type E. coli NCM3722, growth: N-lim chemostat, doubling time 12 h
[11] = wild type E. coli NCM3722, growth: P-lim chemostat, doubling time 6 h
[12] = wild type E. coli NCM3722, growth: P-lim chemostat, doubling time 12 h

## MAKEISSELLNTILTRVGGPGNIASCGNCMTRLRLGVHDSSLVDPNIKTLEGVKGVILTSDQVQVVFGPGKAHRAAKAMSELLGEAPVQDAAEIAAQNKRQLKAKQTSGVQQFLAKFATIFTPLIPGFIAAGLLLGIATLIATVMHVPADAQGTLPDALNFMKVFSKGLFTFLVILVGYNAAQAFGGTGVNGAIIAALFLLGYNPAATTGYYAGFHDFFGLPIDPRGNIIGVLIAAWACARIEGMVRRFMPDDLDMLLTSLITLLITATLAYLIIMPLGGWLFEGMSWLFMHLNSNPFGCAVLAGLFLIAVVFGVHQGFIPVYLALMDSQGFNSLFPILSMAGAGQVGAALALYWRAQPHSALRSQVRGAIIPGLLGVGEPLIYGVTLPRMKPFVTACLGGAAGGLFIGLIAWWGLPMGLNSAFGPSGLVALPLMTSAQGILPAMAVYAGGILVAWVCGFIFTTLFGCRNVNLD
[1]
  total protein half-life in vivo: 3.66 h
[2]
  total protein half-life in vivo: 3.67 h
[3]
  total protein half-life in vivo: 6.02 h
[4]
  total protein half-life in vivo: 3.48 h
[5]
  total protein half-life in vivo: 5.06 h
[6]
  total protein half-life in vivo: 5.006 ± 0.029 h

## MKIAILSRDGTLYSCKRLREAAIQRGHLVEILDPLSCYMNINPAASSIHYKGRKLPHFDAVIPRIGTAITFYGTAALRQFEMLGSYPLNESVAIARARDKLRSMQLLARQGIDLPVTGIAHSPDDTSDLIDMVGGAPLVVKLVEGTQGIGVVLAETRQAAESVIDAFRGLNAHILVQEYIKEAQGCDIRCLVVGDEVVAAIERRAKEGDFRSNLHRGGAASVASITPQEREIAIKAARTMALDVAGVDILRANRGPLVMEVNASPGLEGIEKTTGIDIAGKMIRWIERHATTEYCLKTGG [P0C0U4]
[2]
  total protein half-life in vivo: 4.13 ± 0.23 h
[7]
  total protein half-life in vivo: 3.76 ± 0.12 h
[8]
  total protein half-life in vivo: 4.31 ± 0.27 h
[3]
  total protein half-life in vivo: 3.78 ± 0.36 h
[4]
  total protein half-life in vivo: 2.85 ± 0.062 h
[5]
  total protein half-life in vivo: 5.3 ± 0.24 h
[9]
  total protein half-life in vivo: 10.9 ± 0.29 h
[6]
  total protein half-life in vivo: 3.77 ± 0.19 h
[10]
  total protein half-life in vivo: 6.029 ± 0.023 h
[11]
  total protein half-life in vivo: 5.56 ± 0.65 h

## MTNPQFAGHPFGTTVTAETLRNTFAPLTQWEDKYRQLIMLGKQLPALPDELKAQAKEIAGCENRVWLGYTVAENGKMHFFGDSEGRIVRGLLAVLLTAVEGKTAAELQAQSPLALFDELGLRAQLSASRSQGLNALSEAIIAATKQV [P0AGF2]
[1]
  total protein half-life in vivo: 4.97 ± 0.16 h
[2]
  total protein half-life in vivo: 4.73 ± 0.56 h
[7]
  total protein half-life in vivo: 4.9 ± 0.33 h
[8]
  total protein half-life in vivo: 5.38 ± 0.38 h
[3]
  total protein half-life in vivo: 4.87 ± 0.87 h
[4]
  total protein half-life in vivo: 3.4 ± 0.066 h
[5]
  total protein half-life in vivo: 5.18 ± 0.76 h
[9]
  total protein half-life in vivo: 8.98 ± 0.8 h
[6]
  total protein half-life in vivo: 4.504 ± 0.012 h
[10]
  total protein half-life in vivo: 8.14 ± 0.94 h
[11]
  total protein half-life in vivo: 5.64 ± 0.32 h
[12]
  total protein half-life in vivo: 11.1 ± 0.35 h

## MYQVVASDLDGTLLSPDHTLSPYAKETLKLLTARGINFVFATGRHHVDVGQIRDNLEIKSYMITSNGARVHDLDGNLIFAHNLDRDIASDLFGVVNDNPDIITNVYRDDEWFMNRHRPEEMRFFKEAVFQYALYEPGLLEPEGVSKVFFTCDSHEQLLPLEQAINARWGDRVNVSFSTLTCLEVMAGGVSKGHALEAVAKKLGYSLKDCIAFGDGMNDAEMLSMAGKGCIMGSAHQRLKDLHPELEVIGTNADDAVPHYLRKLYLS
[1]
  total protein half-life in vivo: 3.6 ± 0.88 h
[2]
  total protein half-life in vivo: 2.94 ± 0.046 h
[7]
  total protein half-life in vivo: 3.53 ± 0.15 h
[8]
  total protein half-life in vivo: 3.67 ± 0.27 h
[3]
  total protein half-life in vivo: 3.31 ± 0.055 h
[5]
  total protein half-life in vivo: 4.88 ± 0.24 h
[9]
  total protein half-life in vivo: 8.98 ± 0.53 h
[6]
  total protein half-life in vivo: 3.39 ± 0.091 h
[10]
  total protein half-life in vivo: 5.36 ± 0.23 h
[11]
  total protein half-life in vivo: 4.82 ± 0.18 h
[12]
  total protein half-life in vivo: 10.2 ± 0.16 h

## MKFIGKLLLYILIALLVAIAGLYFLLQTRWGAEHISAWVSENSDYHLAFGAMDHRFSAPSHIVLENVTFGRDGQPATLVAKSVDIALSSRQLTEPRHVDTILLENGTLNLTDQTAPLPFKADRLQLRDMAFNSPNSEWKLSAQRVNGGVVPWSPKAGKVLGTKAQIQFSAGSLSLNDVPATNVLIEGSIDNDRVTLTNLGADIARGTLTGNAQRNADGSWQVENLRMADIRLQSEKSLTDFFAPLRSVPSLQIGRLEVIDARLQGPDWAVTDLDLSLRNMTFSKDDWQTQEGKLSMNASEFIYGSLHLFDPIINTEFSPQGVALRQFTSRWEGGMVRTSGNWLRDGKTLILDDAAIAGLEYTLPKNWQQLWMETTPGWLNSLQLKRFSASRNLIIDIDPDFPWQLTALDGYGANLTLVTDHKWGVWSGSANLNAAAATFNRVDVRRPSLALTANSSTVNISELSAFTEKGILEATASVSQTPQRQTHISLNGRGVPVNILQQWGWPELPLTGDGNIQLTASGDIQANVPLKPTVSGQLHAVNAAKQQVTQTMNAGIVSSGEVTSTEPVR
[1]
  total protein half-life in vivo: 6.81 ± 0.67 h
[2]
  total protein half-life in vivo: 6.85 ± 0.84 h
[7]
  total protein half-life in vivo: 6.19 ± 0.067 h
[8]
  total protein half-life in vivo: 6.3 ± 0.072 h
[3]
  total protein half-life in vivo: 6.28 ± 0.42 h
[4]
  total protein half-life in vivo: 3.2 ± 0.15 h
[5]
  total protein half-life in vivo: 5.9 ± 0.12 h
[9]
  total protein half-life in vivo: 11.4 ± 1 h
[6]
  total protein half-life in vivo: 6.16 ± 0.12 h
[10]
  total protein half-life in vivo: 12.6 ± 0.84 h
[11]
  total protein half-life in vivo: 6.26 ± 0.23 h
[12]
  total protein half-life in vivo: 12 ± 0.2 h

## MKIRSQVGMVLNLDKCIGCHTCSVTCKNVWTGREGMEYAWFNNVETKPGIGYPKNWEDQEEWQGGWVRDVNGKIRPRLGNKMGVITKIFANPVVPQIDDYYEPFTFDYEHLHSAPEGKHIPTARPRSLIDGKRMDKVIWGPNWEELLGGEFEKRARDRNFEAMQKEMYGQFENTFMMYLPRLCEHCLNPSCVATCPSGAIYKREEDGIVLIDQDKCRGWRLCISGCPYKKIYFNWKSGKSEKCIFCYPRIESGQPTVCSETCVGRIRYLGVLLYDADRIEEAASTEREVDLYERQCEVFLDPHDPSVIEEALKQGIPQNVIDAAQRSPVYKMAMDWKLALPLHPEYRTLPMVWYVPPLSPIQSYADAGGLPKSEGVLPAIESLRIPVQYLANMLSAGDTGPVLRALKRMMAMRHYMRSQTVEGVTDTRAIDEVGLSVAQVEEMYRYLAIANYEDRFVIPTSHREMAGDAFAERNGCGFTFGDGCHGSDSKFNLFNSSRIDAINITEVRDKAEGE
[1]
  total protein half-life in vivo: 6.49 ± 0.73 h
[2]
  total protein half-life in vivo: 5.74 ± 0.49 h
[7]
  total protein half-life in vivo: 6.23 ± 0.64 h
[8]
  total protein half-life in vivo: 6.34 ± 1.3 h
[3]
  total protein half-life in vivo: 5.77 ± 1.2 h
[4]
  total protein half-life in vivo: 3.14 ± 0.27 h
[5]
  total protein half-life in vivo: 5.54 ± 0.12 h
[9]
  total protein half-life in vivo: 10.3 ± 0.17 h
[6]
  total protein half-life in vivo: 5.94 ± 0.089 h
[10]
  total protein half-life in vivo: 12.5 ± 0.46 h
[11]
  total protein half-life in vivo: 5.68 ± 0.26 h
[12]
  total protein half-life in vivo: 11.62 ± 0.051 h
